This note sets out measurements from the supplement of paper PMC12636428.

This data set deals with Saccharomyces cerevisiae. As to the kind of experiment: transcriptional activation domain activity (GFP:mCherry ratio, weighted mean of sorted bins, harmonized to initial dataset scale) (arbitrary fluorescence ratio units); higher = stronger transcriptional activation. The settings on record: beta-estradiol 1 µM; induction time 4 h. The method, boiled down:
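Yeast diploids with a GFP reporter received barcoded protein tiles, fused to an estradiol-inducible synthetic transcription factor, at the URA3 locus. Cultures were diluted 1:5 into SC holding 1 uM beta-estradiol, incubated 4 hours at 30 °C, sorted into 8 bins on GFP:mCherry ratio, and sequenced for barcodes, with tiles under 50 reads discarded. Activation activity values come from the read-weighted mean of bin median fluorescence, averaged across barcodes and linearly placed on the initial dataset scale.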

On to “GAAEVDAAAPEGAETIEGAPAATEKQPRPPKKPRTPRPRRPAGEEPAGEPSKN”, for which the “transcriptional activation domain activity” value was found to be 29700. Consider “GAAHVPSGLSEEKELEQEKKKADRRKGMREKAKEREAKRPVEVAAPEPVAAAP”, for which the “transcriptional activation domain activity” value was found to be 23700. The value for “GAAPPPPPPPPARGGGAAPPPPPPPPPARGGAVPPPPPPPPPSGGGPPPPPPP” was 33000; that for “GAARVQVDFWFFLFVYYGLYNLTALIWITKVFNLYSLNWWPQSLGFPLTVSLI” was 61300.

For “GAATTANAGGKRNRMKVNGKYYTRLDCIGRGGSSRVYRVMAENSKFFALKRVT”, the “transcriptional activation domain activity” value came to 35500. On to “GACLQDIAMVGFIDTNSIGCVASSVVLYLSLVFIIGVVAIRFFMAVMFQWFFS”, for which the “transcriptional activation domain activity” value turned out to be 35600. Turning to “GAEAGAAVPGKRRNRRGRRGKKKKPGLANGAANGDGVEREDGENGEGEVPKEE”, the “transcriptional activation domain activity” value was found to be 52100. Regarding “GAEEGAKEKAGEVAKKRKREVAAAVEDEEGGQPKAEKVRTKKGGGKSKEKKDS”, the “transcriptional activation domain activity” value came to 27400. Then “GAEGAGAPGGAPPQLKKPKKHHKKKHHKKHGHRGGKHKHGKKGKWGKKGKKGL”, with 15100.

For “GAEYICQYKGGLIGKHFKSFAQIMPYLIYDLVPPSVLDAWTTIGSPVVLLWHT”, the “transcriptional activation domain activity” value is 46000. Take “GAGAGGKVGGGAGAGAGAGAGAGHLGGGAEGGGKIGAGAGGKVGGEIGAGGKI”: the “transcriptional activation domain activity” value stood at 25000.

In the case of “GAGGAAGGAGAGAGTAATGGNAAGGKASATKPAAGAKSSPAAAAAAAGTRLTG”, the “transcriptional activation domain activity” value turned out to be 7150. Turning to “GAGGAMGAALKHAVRDLAALSTAVSGAWVVEAITSSCSRRSIAVLVSRALAAM”, the “transcriptional activation domain activity” value was 42000. “GAGGGITSNGGGKPAAAAEGAKPASEAPKEASKPEGAKPASESPKPEGEKPAA”: the “transcriptional activation domain activity” value worked out at 27600. Then “GAGPVGYGPQGAGEGDGESKSDSETMRTATTQPPPKPKQLYFIYVLASHYGLG”, with 61700; and “GAGVGGATDGAEGKKGDGGGGKEKEREEGERRKKKKKRNKEGRDGGGGGTGGD”, with 43300; and “GAKDLDDAVSIKVNEDGTYDVSVHVADVSFFVKPNTALDRDARKRATSVYLVQ”, with 48400.

As to “GAKEEGGKKEAGGEKKEGSGKEGAKEGGEKGAKEGGEKKEGGEKGEGKEGGEG”, the “transcriptional activation domain activity” value amounted to 20300. Regarding “GAKGKGAEKGKSKQAEQGDGEDGGSEAEGGKRKRAARSKAKTKGKAGGAADGG”, the “transcriptional activation domain activity” value worked out at 23300. For “GAKVRSWPLTYIYTLYFFMTYFIFYRNLFARLQDPKQVLYLQLGLSMWIVFIY”, the “transcriptional activation domain activity” value worked out at 35200. On to “GALRLAASQEGIKLGDDVKSNVKMVLGKDAQGGFAVSAEVTVSGNGVTKALVD”, for which the “transcriptional activation domain activity” value was 31300.

Turning to “GANADELGHIIVTRRNRFWKIKGIVGGRILSMPELERWTLFVLLMCFRLHIYP”, the “transcriptional activation domain activity” value worked out at 23900. “GANAGGARPSSRTSNKKPTSSASPPNDSNDSNKKKDADAKKHDGKKAERGGGR”: the “transcriptional activation domain activity” value was found to be 29100. Take “GAPHHNQFLDLNLGLEVYKETGRRVQFLVAAKSMQRKFVGLCCRLIHAIPVVR”: the “transcriptional activation domain activity” value turned out to be 67400. In the case of “GAQKPFDLTHWNITEYDCQGFDGYHEMSFFVLASHLYYRSLRSIPSLVRLWWI”, the “transcriptional activation domain activity” value amounted to 75200. As to “GAQTSGPSSSAGSNNNSSSSSSEEDEPATGGSNGTQLKGKPRKTAAKRATSSG”, the “transcriptional activation domain activity” value worked out at 35300. For the sequence “GARRQARRPRKRESSAADGDDNDADRMDVDREEARGGREQADAGDAEDEDDEE”, the “transcriptional activation domain activity” value was 40000. In the case of “GARTGKDKEKEKDKEKDKGARRSSCRSWSRDRGRSRSRSPRRDRERDRERGRG”, the “transcriptional activation domain activity” value was 31500.

As for “GASAFGSAAQLGQKSSPWGSATSAVPSTGGAVFGSSGFGNAAPSAAPAFGKPS”, the “transcriptional activation domain activity” value is 33200. Consider “GASGGTKLAKKAPAAAAPKKVAAPKKEAAPKKEIKEKKPAAAPKKAAVPKKEA”, for which the “transcriptional activation domain activity” value amounted to 38800. For “GASPEESNSGNSRAGASRARKGSKVIDENMVEDALLGLQITHGCLVHHTASVQ”, the “transcriptional activation domain activity” value was 44800. On to “GASSSAAAAGSSEEAPKKKRGRPPKEKKADESGAETEPAPKRKRGRPPKNPKP”, for which the “transcriptional activation domain activity” value is 21200. With “GASTPVTTGGKRKSDGGAGGSAKKERKTPAAKKDKEEKAPRGKANGAKATAAS”, the “transcriptional activation domain activity” value came to 22000. Consider “GASTSAFGTPSALGAKPNPFGTPATGGAFGQPAAAPAFGQPTQPAGAFGQPAQ”, for which the “transcriptional activation domain activity” value is 40300. With “GASVDIHVTYQSSVKEGDEVEIEGIAEKVGGSLAFTKVNIFRVEDGERGRPVA”, the “transcriptional activation domain activity” value is 36800.

On to “GASYVIFCLRYYYKGKRRRLTNRLVAYKRALLLVQFVFTHHKWPSYIVILESY”, for which the “transcriptional activation domain activity” value came out at 46200. On to “GATSTDHQHHHHRIQFHSHKPNRNNIVNNSGISAANTTADLTNNDLNDLISRE”, for which the “transcriptional activation domain activity” value stood at 31400. As for “GATSTPAATGTTGGLFGSGGTTTGGFGSTSTPAAGGFGSTSTGGGLFGAKPAT”, the “transcriptional activation domain activity” value stood at 21400. As for “GAVAADVEDEDADDALEEPAKGKKRKSKVEEDESEAEKPAKKGRGRKSTETNG”, the “transcriptional activation domain activity” value came out at 42600. As for “GAVARAAHAAAPAGVRAAAPAPAGVHALAPAGAHALVHAPARAGPARALVLAG”, the “transcriptional activation domain activity” value came out at 48800.

Turning to “GAVINLSLSLGRRTQVEEAIKLVRYKAHYVSGSIDHGLHRLLVWAYTLLTVRI”, the “transcriptional activation domain activity” value was found to be 57100. The value for “GAVMPILMQFFFIMAWNGICNGMHLYAAYNLRTHVLARLFWSILWPLLSSLCS” was 59900; that for “GAVNLSSNERVVFSCRGEVLESKFGRSSKLSPRTFVVTTSKFYIVVQMLVSGQ” was 37800; that for “GAYYLVSGLNGFELYEFDDNYHCGCCRDVHYRLFWFLIETISVLHGRWVFLQV” was 28800.

Turning to “GCDYVFSMYVLGAGLWLFIFYLPPIVFSIVCLCYLTLIWAVSWVLLWCLIFIL”, the “transcriptional activation domain activity” value was found to be 53900. Regarding “GCEPKNQRIFYFHVLILQRSLMARLERHEEGLSTKEWRLVLGDHYWISHWKKV”, the “transcriptional activation domain activity” value turned out to be 51400.

As to “GCKRESQEREEDKNIEKIRKKKQSVVNRKSKRRSETNRRNIKRNNRQHAARER”, the “transcriptional activation domain activity” value was 55600. In the case of “GCLLPVTSCVFLAPFTLDFLWIPFLTHYLIILLCWYHLFSLRLLFCCSKSLPT”, the “transcriptional activation domain activity” value came to 57200. With “GCLLTFPNKIDWATLVIILFSETFTICLLLIKGFYWVISSAHKVGDRVLYYVA”, the “transcriptional activation domain activity” value came out at 50800. As to “GCRKDQRARRRRSPALANRPEMKGVCLKTGITKPKKPNSGERKTARIRLSSGR”, the “transcriptional activation domain activity” value is 38900. “GCRNAYEIKTLRFGGVCMLHRCGGGQNCFKECCIDLMICLRFYIPFMKKFCPK”: the “transcriptional activation domain activity” value is 15900. As to “GCVVSCKLVGLFTITLIGVAVLYDLWRIIDIRRGTTMAQFARHFVARALALIA”, the “transcriptional activation domain activity” value is 21600.

On to “GCWGETWWYTMQFGALLAEGAAQHWLGLLEQKVLPWSRYGMMQKGLRRLFGYV”, for which the “transcriptional activation domain activity” value is 75600.

“GDADEDGNGHGTHCSGTVAGKKYGVAKKANVYAVKVLRSNGSGSMSDVVKGVE”: the “transcriptional activation domain activity” value was 30300. The value for “GDADVDGNGHGTHCSGTIAGKKYGVSKKAKIYAVKVLRSNGSGTMADVVAGVE” was 59400; that for “GDAEPSSKGGEDSSGGEGSADEEKPKAKPAKAKSKSSSSKEPVKKKAKKEKKD” was 21400. Turning to “GDAGGSSAAEQREAGQERRQRRGAERRQRQSVFEQLGGAEQRGAGRGSAGRGG”, the “transcriptional activation domain activity” value was below 6570. “GDAHAAPKGRKGGGKKRKAADEDGEEEGEAEKPAKKAGKRGKKGKATPTQEEG”: the “transcriptional activation domain activity” value is 12100. On to “GDAKSTLEQLGDDAKLVDEDGNLCDAECIVDKVKEVVKHAGRTTRKSLLKLGL”, for which the “transcriptional activation domain activity” value amounted to 51100. For the sequence “GDAPASFHSFCVVRVFMDVCWLGKRLCLKVLNMDPTCPWLMLLLLKATRLHLS”, the “transcriptional activation domain activity” value stood at 65300. With “GDDCEVFFLFTFTFTFFFFYFFPRVLFTPFFFYILDLSLFFYCCSCFFFFSPC”, the “transcriptional activation domain activity” value was 27100. The value for “GDDEETQGNATKNILDDWEGAPESFVCQEQRQTGGRVAAKTQRLLSFSIHDEL” was 23100; that for “GDDETDAPAKPKEGEDEKKPSSASPEDDLRSSRRSHKKREPGHRDRDRERDRD” was 15300; that for “GDEDEEDTAELKEEALKGLIAVLVCASVLSIVRALMHSQLDLSILELLVDNMT” was 53600. As to “GDEEREQRKKHKKRKDRGSDDEDRHHKHKHKKDKHREKGTKDSKKHRGNEPSS”, the “transcriptional activation domain activity” value was found to be 64300.

Turning to “GDEIVVVIQRARPVSAAAASSVTAVKVRRGDVRRAVIVRTRKAVRRPDGRYIR”, the “transcriptional activation domain activity” value came out at 70400. Then “GDEKKRNRERSREGGHRERSRSPDRERRSRRKRSHSRDRSSTRRRHKRHRSRS”, with 30400; and “GDEKLAKGRGDEKPAKGKGKEKKAKAKGKKAKGEKKAEDKENAVKESLENAVK”, with 32800; and “GDERSRKAGEKETSRGGRGAGGGRRETGRKEKPGGKAGKGGRTRAGGRGREKK”, with 21800. With “GDESRIDTKFFFGCVGLSNVVFIWPVLVLFHYLGIERFGLPPSSRIWWLLLLN”, the “transcriptional activation domain activity” value worked out at 50100. Turning to “GDFESKCYLFEPSELRFPPHVFSLTNGRLYRRWYFLDLQSGMLFRFFYICDWR”, the “transcriptional activation domain activity” value came to 32700. The value for “GDFNDKTLKENCRVDSQQDCYDLAQLQILESDFWKTIAFSKPFYAVDENSSIF” was 102000; that for “GDGKEEGAQKKKKKKAKKAHGEEGEQEGGDEKAKKKKKKKKKKALGGRARARA” was 26600. “GDGTPTLSWRHDLGGGEVRDLEVTVVKVHSGEVTLLSSATLKLVLVFHLSSTI”: the “transcriptional activation domain activity” value stood at 43400.
